Assay results reported in patent US20190263932A1 (Eli Lilly, published 2019).
Changes are numbered by the printed parent chain. Values belong to the binder of their own block, whether it stands above or below them.

What was measured:
[1] = target: T1, recombinant human TrkA protein (human, UniProt P04629-2 34-407, limits assumed); test: NGF-blocking ELISA on coated human TrkA, 100 nM btNGF; mAb 0.02 nM
Protocol: (§1) Each row of a 96-well high-binding clear-bottom microtiter plate (Microlon, #655061) was coated overnight at 4° C. with 100 μL/well of recombinant human TrkA protein, diluted to 2 μg/mL in phosphate buffered saline, pH 7.2 (PBS). The next day, the coating solution was removed, and the plate was blocked with 150 μL of Casein-PBS (Thermo Scientific, #37528) for 1 hour at 25° C. with gentle shaking. The plate was then washed three times with PBS supplemented with 0.05% Tween20 (PBST). A two-fold dilution series of exemplified antibodies, along with IgG4 and IgG1 isotype control antibodies, was generated starting at 20 nM in Casein-PBS. 100 μL of the each dilution series sample was added to a well for 30 min at 37° C. with gentle shaking. The plate was then washed three times with PBST. […] The plate was then washed three times with PBST. A 1:3500 dilution of a 1 mg/mL stock solution of streptavidin-HRP (Thermo Scientific, #21130) in Casein-PBS was prepared and […] was added to each well for 20 min at 37° C. with gentle shaking. The plate was washed three times with PBST. […] The reaction was stopped by addition of 100 μL of 1M H₃PO₄ to each well. The absorbance at 450 nm (Abs450) was measured using a SpectraMax 340PC plate reader (Molecular Devices).

[2] = target: T1, recombinant human TrkA protein; test: NGF-blocking ELISA on coated human TrkA, 100 nM btNGF; mAb 0.16 nM
Protocol: as §1

[3] = target: T1, recombinant human TrkA protein; test: NGF-blocking ELISA on coated human TrkA, 100 nM btNGF; mAb 20 nM
[4] = target: T1, recombinant human TrkA protein; test: NGF-blocking ELISA on coated human TrkA, 100 nM btNGF; mAb 1.25 nM
Protocol: as §1

[5] = target: T1, recombinant human TrkA protein; test: NGF-blocking ELISA on coated human TrkA, 100 nM btNGF; mAb 0.08 nM
Protocol: as §1

[6] = target: rat TrkA receptor expressed in transfected HEK293 cells (rat, UniProt P35739 33-799); test: cell-based or functional assay
Chain of rat TrkA receptor expressed in transfected HEK293 cells (P35739 33-799): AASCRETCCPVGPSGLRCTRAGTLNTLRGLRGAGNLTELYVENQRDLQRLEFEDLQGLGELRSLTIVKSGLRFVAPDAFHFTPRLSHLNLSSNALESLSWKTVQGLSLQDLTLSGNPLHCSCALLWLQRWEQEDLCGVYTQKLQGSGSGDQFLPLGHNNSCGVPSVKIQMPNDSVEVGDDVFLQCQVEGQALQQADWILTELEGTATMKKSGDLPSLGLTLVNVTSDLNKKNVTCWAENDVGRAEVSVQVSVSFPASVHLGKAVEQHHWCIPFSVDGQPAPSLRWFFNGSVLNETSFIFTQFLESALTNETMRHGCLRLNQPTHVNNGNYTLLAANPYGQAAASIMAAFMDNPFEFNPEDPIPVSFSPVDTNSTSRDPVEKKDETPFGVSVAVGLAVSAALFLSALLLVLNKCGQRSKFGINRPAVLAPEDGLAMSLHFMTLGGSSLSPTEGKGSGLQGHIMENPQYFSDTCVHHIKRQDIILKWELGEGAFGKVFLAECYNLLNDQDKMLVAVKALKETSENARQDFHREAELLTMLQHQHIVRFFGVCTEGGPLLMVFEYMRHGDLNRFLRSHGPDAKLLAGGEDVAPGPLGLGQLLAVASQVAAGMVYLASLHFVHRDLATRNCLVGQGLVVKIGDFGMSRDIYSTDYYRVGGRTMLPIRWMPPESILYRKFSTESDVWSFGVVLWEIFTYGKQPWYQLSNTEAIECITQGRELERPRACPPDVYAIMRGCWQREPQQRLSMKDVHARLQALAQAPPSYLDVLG

[7] = target: T1, recombinant human TrkA protein; test: NGF-blocking ELISA on coated human TrkA, 100 nM btNGF; mAb 0.04 nM
Protocol: as §1

[8] = target: T1, recombinant human TrkA protein; test: NGF-blocking ELISA on coated human TrkA, 100 nM btNGF; mAb 10 nM
Protocol: as §1

[9] = target: T1, recombinant human TrkA protein; test: NGF-blocking ELISA on coated human TrkA, 100 nM btNGF; mAb 2.5 nM
Protocol: as §1

[10] = target: T1, recombinant human TrkA protein; test: NGF-blocking ELISA on coated human TrkA, 100 nM btNGF; mAb 0.63 nM
Protocol: as §1

[11] = target: T2, Rat TrkA Extracellular Domain (33-411) (rat, UniProt P35739 33-417); test: SPR, mAb captured on Protein A chip, 37 C
T2 construct: SPR analyte
T2 sequence (P35739 other isoform, or with tags, fused parts or gaps): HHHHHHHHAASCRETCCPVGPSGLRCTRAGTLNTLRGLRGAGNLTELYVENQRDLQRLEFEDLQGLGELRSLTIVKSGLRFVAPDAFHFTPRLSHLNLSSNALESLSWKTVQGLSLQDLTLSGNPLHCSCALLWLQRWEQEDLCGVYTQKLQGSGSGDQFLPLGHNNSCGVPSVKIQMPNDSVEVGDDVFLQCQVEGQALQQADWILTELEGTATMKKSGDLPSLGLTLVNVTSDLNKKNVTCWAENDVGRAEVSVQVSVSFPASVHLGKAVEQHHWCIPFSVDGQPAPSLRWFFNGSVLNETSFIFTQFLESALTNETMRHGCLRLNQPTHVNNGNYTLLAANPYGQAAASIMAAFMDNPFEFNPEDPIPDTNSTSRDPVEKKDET
Protocol: The binding kinetics and affinity of exemplified antibodies to human, cynomolgus monkey, rat, mouse, and rabbit TrkA are determined as described below using a surface plasmon resonance assay on a BIACORE™ 8K instrument (GE Healthcare). Two different isoforms of human TrkA (isoform 1 and isoform 2) are evaluated along with human TrkB and human TrkC. […] All FC2 on all eight channels are set to capture approximately 89 response units (RU) of antibody at a flow rate of 10 μL/min. The antibody sample is prepared at 1 μg/mL by dilution into the running buffer. […] Before the analysis cycle, the chip is regenerated with 3 injections of glycine (pH ˜1.5) at 100 μL/min for a contact time of 15 seconds on FC1 and FC2 in order to clean the surface of the chip.

[12] = target: T3, Human TrkA Extracellular Domain Isoform 2 (33-408) (human, UniProt P04629 33-414); test: SPR, mAb captured on Protein A chip, 37 C
T3 construct: SPR analyte; also called Human TrkA Isoform 2
T3 sequence (P04629 other isoform, or with tags, fused parts or gaps): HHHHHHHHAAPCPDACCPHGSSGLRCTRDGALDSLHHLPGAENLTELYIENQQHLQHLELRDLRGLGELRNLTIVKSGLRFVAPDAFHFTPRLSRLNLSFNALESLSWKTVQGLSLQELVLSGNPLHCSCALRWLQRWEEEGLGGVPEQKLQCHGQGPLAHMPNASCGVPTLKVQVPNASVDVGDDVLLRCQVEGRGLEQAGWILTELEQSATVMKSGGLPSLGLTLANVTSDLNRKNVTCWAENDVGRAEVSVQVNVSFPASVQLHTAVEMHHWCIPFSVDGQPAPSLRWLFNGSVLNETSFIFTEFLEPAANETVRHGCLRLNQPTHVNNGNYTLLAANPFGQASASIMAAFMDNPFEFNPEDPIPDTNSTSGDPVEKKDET
Protocol: Antibodies are captured onto a Series-S Sensor Protein A CM5 chip (GE Healthcare). For each channel, Flow Cell 1 (FC1) is designated as a buffer reference and Flow Cell 2 (FC2) is designated for antibody capture. All FC2 on all eight channels are set to capture approximately 89 response units (RU) of antibody at a flow rate of 10 μL/min. All antibody samples are prepared at 5 μg/mL by dilution into the running buffer. […] Before the analysis cycle, the chip is regenerated with 3 injections of glycine (pH ˜1.5) at 100 μL/min for a contact time of 15 seconds on FC1 and FC2 in order to clean the surface of the chip. […] This is repeated for each antibody evaluated. Data is processed using predefined antibody parallel kinetics with reference subtraction and fit to a 1:1 binding model using BIACORE™ 8K evaluation software (version 1.1.1.7442) to determine the association rate (on-rate, kon, M⁻¹s⁻¹ units) and the dissociation rate (off-rate, koff, s⁻¹ units). The equilibrium dissociation constant (KD) is calculated from the relationship KD=koff/kₒₙ, in molar units. The average (Avg) KD and error, reported as the standard deviation (SD), is determined from three independent experiments.

T1 sequence (P04629 other isoform, or with tags, fused parts or gaps limits assumed): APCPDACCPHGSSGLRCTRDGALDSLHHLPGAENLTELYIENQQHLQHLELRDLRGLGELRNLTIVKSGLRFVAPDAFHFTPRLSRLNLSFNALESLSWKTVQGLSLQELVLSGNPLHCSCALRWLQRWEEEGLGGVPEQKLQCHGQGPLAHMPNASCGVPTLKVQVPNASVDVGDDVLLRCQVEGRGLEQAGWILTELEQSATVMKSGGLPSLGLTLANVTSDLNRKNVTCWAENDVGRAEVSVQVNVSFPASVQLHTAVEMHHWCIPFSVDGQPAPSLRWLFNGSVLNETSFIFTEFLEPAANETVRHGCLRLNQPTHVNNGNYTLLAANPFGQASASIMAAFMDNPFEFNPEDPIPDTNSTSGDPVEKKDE

- Absorbance 450 nm [1]: 1.11
- Absorbance 450 nm [2]: 0.87
- Absorbance 450 nm [3]: 0.2
- Absorbance 450 nm [4]: 0.26
- Absorbance 450 nm [5]: 1.03
- % Max stimulation, pTrkA [6]: 18%
- EC50 (nM), pTrkA [6]: 0.88 nM
- pTrkA counts per second, 0.1 pM mAb, no NGF [6]: 171000 counts per second
- pTrkA counts per second, 1 pM mAb, no NGF [6]: 174000 counts per second
- pTrkA counts per second, 10 pM mAb, no NGF [6]: 227000 counts per second
- pTrkA counts per second, 100 pM mAb, no NGF [6]: 203000 counts per second
- pTrkA counts per second, 1 nM mAb, no NGF [6]: 442000 counts per second
- pTrkA counts per second, 10 nM mAb, no NGF [6]: 640000 counts per second
- pTrkA counts per second, 100 nM mAb, no NGF [6]: 572000 counts per second
- pTrkA counts per second, 1 uM mAb, no NGF [6]: 493000 counts per second
- Absorbance 450 nm [7]: 1.09
- Absorbance 450 nm [8]: 0.2
- Absorbance 450 nm [9]: 0.21
- Absorbance 450 nm [10]: 0.38
- Kd [11]: 5.1 nM
- koff [11]: 0.00069 s⁻¹
- kon [11]: 140000 M⁻¹ s⁻¹
B1: mAb A (antibody, human IgG4 S228P, kappa, F234A L235A, V domains shown)
VH: EVQLVESGGGLVKPGGSLRLSCAASGFTFSGVSINWVRQAPGKGLEWVSSETTSSGTIYYADSVKGRFTISRDNAKNSLYLQMNSLRAEDTAVYYCARSYYYGMDVWGQGTTVTVSS
VL: DIVMTQTPLSSPVTLGQPASISCRSSQSLVHRNGNTYLSWLQQRPGQPPRLLIYKISNRFSGVPDRFSGSGAGTDFTLKISRVEAEDVGVYYCMQARQFPLTFGGGTKVEIKR
notes: Human IgG4PAA/Kappa

- Absorbance 450 nm [1]: 0.97
- Absorbance 450 nm [2]: 0.77
- Absorbance 450 nm [3]: 0.15
- Absorbance 450 nm [4]: 0.16
- Absorbance 450 nm [5]: 0.92
- % Max stimulation, pTrkA [6]: 50%
- EC50 (nM), pTrkA [6]: 0.21 nM
- pTrkA counts per second, 0.1 pM mAb, no NGF [6]: 571000 counts per second
- pTrkA counts per second, 1 pM mAb, no NGF [6]: 613000 counts per second
- pTrkA counts per second, 10 pM mAb, no NGF [6]: 664000 counts per second
- pTrkA counts per second, 100 pM mAb, no NGF [6]: 922000 counts per second
- pTrkA counts per second, 1 nM mAb, no NGF [6]: 1.54e+06 counts per second
- pTrkA counts per second, 10 nM mAb, no NGF [6]: 1.69e+06 counts per second
- pTrkA counts per second, 100 nM mAb, no NGF [6]: 1.77e+06 counts per second
- pTrkA counts per second, 1 uM mAb, no NGF [6]: 1.63e+06 counts per second
- Absorbance 450 nm [7]: 1.03
- Absorbance 450 nm [8]: 0.15
- Absorbance 450 nm [9]: 0.15
- Absorbance 450 nm [10]: 0.3
- Kd [11]: 9 nM
- koff [11]: 0.0012 s⁻¹
- kon [11]: 130000 M⁻¹ s⁻¹
B2: mAb C (antibody, human IgG4 S228P, kappa, F234A L235A)
heavy: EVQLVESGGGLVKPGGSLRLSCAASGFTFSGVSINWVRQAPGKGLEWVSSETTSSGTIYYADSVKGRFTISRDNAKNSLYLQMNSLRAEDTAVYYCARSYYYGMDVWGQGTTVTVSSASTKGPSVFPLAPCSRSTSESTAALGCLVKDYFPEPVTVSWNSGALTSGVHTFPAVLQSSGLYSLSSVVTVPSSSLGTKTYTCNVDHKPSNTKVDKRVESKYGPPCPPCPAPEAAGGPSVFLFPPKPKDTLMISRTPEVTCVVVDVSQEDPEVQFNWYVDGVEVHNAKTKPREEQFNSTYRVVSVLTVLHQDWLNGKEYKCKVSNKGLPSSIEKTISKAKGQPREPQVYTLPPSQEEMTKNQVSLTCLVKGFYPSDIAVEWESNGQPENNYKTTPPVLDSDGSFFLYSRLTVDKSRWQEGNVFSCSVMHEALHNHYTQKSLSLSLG
light: DIVMTQTPLSSPVTLGQPASISCRSSQSLVHRQGNTYLSWLQQRPGQPPRLLIYKISNRFSGVPDRFSGSGAGTDFTLKISRVEAEDVGVYYCMQARQFPLTFGGGTKVEIKRTVAAPSVFIFPPSDEQLKSGTASVVCLLNNFYPREAKVQWKVDNALQSGNSQESVTEQDSKDSTYSLSSTLTLSKADYEKHKVYACEVTHQGLSSPVTKSFNRGEC
notes: Human IgG4PAA/Kappa

- Absorbance 450 nm [1]: 0.97
- Absorbance 450 nm [2]: 0.7
- Absorbance 450 nm [3]: 0.15
- Absorbance 450 nm [4]: 0.17
- Absorbance 450 nm [5]: 0.75
- Kd [12]: 7.7 nM
- koff [12]: 0.0012 s⁻¹
- kon [12]: 160000 M⁻¹ s⁻¹
- % Max stimulation, pTrkA [6]: 38%
- EC50 (nM), pTrkA [6]: 0.98 nM
- pTrkA counts per second, 0.1 pM mAb, no NGF [6]: 748000 counts per second
- pTrkA counts per second, 1 pM mAb, no NGF [6]: 844000 counts per second
- pTrkA counts per second, 10 pM mAb, no NGF [6]: 638000 counts per second
- pTrkA counts per second, 100 pM mAb, no NGF [6]: 758000 counts per second
- pTrkA counts per second, 1 nM mAb, no NGF [6]: 1.4e+06 counts per second
- pTrkA counts per second, 10 nM mAb, no NGF [6]: 2.1e+06 counts per second
- pTrkA counts per second, 100 nM mAb, no NGF [6]: 2.08e+06 counts per second
- pTrkA counts per second, 1 uM mAb, no NGF [6]: 1.86e+06 counts per second
- Absorbance 450 nm [7]: 0.87
- Absorbance 450 nm [8]: 0.14
- Absorbance 450 nm [9]: 0.16
- Absorbance 450 nm [10]: 0.25
- Kd [11]: 9.1 nM
- koff [11]: 0.0012 s⁻¹
- kon [11]: 130000 M⁻¹ s⁻¹
B3: mAb B (antibody, human IgG4 S228P, kappa, F234A L235A)
heavy: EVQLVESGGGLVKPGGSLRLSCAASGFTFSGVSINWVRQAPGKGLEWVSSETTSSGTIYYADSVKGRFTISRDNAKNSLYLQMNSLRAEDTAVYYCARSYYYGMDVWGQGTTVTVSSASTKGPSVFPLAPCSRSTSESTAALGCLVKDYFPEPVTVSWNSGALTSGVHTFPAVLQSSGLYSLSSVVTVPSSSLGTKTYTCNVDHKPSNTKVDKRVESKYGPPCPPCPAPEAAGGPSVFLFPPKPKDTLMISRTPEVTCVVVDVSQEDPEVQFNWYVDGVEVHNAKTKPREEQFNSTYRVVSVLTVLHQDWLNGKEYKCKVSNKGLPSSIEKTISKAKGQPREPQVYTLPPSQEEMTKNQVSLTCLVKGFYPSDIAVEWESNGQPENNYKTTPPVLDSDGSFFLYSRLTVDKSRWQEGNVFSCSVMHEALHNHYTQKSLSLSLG
light: B2 light with Q33A
notes: Human IgG4PAA/Kappa
